In US12460006B2, “Antibodies against integrin alpha 11 beta 1” (Momenta Pharmaceuticals, Inc., priority 2019, dated 2025):
Entries after “also recorded” stand apart in the source; their conditions may differ. One block for each molecule: values may come before it.

Tests used:
[1] = molecular target: human α11β1 (Homo sapiens, UniProt Q9UKX5); test: ELISA binding to recombinant human α11β1; settings: binding Yes/No
Procedure: (§1) 0.25 μg/mL of target antigen (recombinant human or mouse α11β1) was plated in a 96-well plate over night at 4° C. Plates were washed (PBS with 0.1% Tween-20), blocked (PBS with 2% BSA and 0.05% Tween-20) for 1 hour at room temperature and incubated with a range of antibody concentrations for 1 hour at room temperature. Subsequently, plates were washed and incubated with biotinylated anti-rabbit/mouse/human IgG in a 1:1000 dilution buffer and incubated for 1 hour at room temperature. After washing the plates, Streptavidin HRP was added at 1:200 in dilution buffer and incubated for 1 hour at room temperature. Ultra TMB ELISA substrate solution was added and the plates incubated for 5 minutes on a plate shaker. The reaction was stopped by adding stop solution to each well and plates were read at 450 nm.

[2] = molecular target: mouse α11β1 (Mus musculus, UniProt P61622); test: ELISA binding to recombinant mouse α11β1; settings: binding Yes/No
Sequence of mouse α11β1 (P61622 23-1141 limits assumed): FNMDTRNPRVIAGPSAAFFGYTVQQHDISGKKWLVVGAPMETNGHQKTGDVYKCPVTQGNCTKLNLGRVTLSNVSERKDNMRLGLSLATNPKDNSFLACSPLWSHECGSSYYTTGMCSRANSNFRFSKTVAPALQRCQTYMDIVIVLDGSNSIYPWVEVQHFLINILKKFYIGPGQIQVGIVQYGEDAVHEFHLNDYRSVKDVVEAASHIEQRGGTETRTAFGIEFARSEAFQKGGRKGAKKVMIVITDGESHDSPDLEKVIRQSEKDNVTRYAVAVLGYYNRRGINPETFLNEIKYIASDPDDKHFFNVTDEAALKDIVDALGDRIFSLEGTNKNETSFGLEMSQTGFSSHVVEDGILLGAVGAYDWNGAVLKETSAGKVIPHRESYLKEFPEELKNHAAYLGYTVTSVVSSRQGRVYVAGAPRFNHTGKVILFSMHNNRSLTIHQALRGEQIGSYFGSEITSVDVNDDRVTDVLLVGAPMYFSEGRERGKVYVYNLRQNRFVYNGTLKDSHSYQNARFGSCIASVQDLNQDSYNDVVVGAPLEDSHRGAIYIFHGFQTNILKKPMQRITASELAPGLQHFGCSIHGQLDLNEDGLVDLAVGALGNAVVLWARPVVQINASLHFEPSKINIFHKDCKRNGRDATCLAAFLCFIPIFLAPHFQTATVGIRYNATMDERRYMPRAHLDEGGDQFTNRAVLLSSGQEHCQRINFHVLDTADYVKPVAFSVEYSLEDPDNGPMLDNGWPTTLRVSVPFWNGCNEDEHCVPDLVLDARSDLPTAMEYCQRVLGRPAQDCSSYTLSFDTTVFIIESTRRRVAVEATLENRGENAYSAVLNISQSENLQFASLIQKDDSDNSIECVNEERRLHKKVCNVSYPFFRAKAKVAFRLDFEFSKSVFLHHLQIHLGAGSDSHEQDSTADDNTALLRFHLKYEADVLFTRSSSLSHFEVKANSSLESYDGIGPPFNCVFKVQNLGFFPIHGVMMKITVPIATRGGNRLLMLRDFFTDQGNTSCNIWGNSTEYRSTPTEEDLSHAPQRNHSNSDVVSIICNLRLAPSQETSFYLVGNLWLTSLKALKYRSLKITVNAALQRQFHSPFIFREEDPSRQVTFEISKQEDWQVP
Sequence of mouse α11β1 (P09055 21-728 partner limits assumed): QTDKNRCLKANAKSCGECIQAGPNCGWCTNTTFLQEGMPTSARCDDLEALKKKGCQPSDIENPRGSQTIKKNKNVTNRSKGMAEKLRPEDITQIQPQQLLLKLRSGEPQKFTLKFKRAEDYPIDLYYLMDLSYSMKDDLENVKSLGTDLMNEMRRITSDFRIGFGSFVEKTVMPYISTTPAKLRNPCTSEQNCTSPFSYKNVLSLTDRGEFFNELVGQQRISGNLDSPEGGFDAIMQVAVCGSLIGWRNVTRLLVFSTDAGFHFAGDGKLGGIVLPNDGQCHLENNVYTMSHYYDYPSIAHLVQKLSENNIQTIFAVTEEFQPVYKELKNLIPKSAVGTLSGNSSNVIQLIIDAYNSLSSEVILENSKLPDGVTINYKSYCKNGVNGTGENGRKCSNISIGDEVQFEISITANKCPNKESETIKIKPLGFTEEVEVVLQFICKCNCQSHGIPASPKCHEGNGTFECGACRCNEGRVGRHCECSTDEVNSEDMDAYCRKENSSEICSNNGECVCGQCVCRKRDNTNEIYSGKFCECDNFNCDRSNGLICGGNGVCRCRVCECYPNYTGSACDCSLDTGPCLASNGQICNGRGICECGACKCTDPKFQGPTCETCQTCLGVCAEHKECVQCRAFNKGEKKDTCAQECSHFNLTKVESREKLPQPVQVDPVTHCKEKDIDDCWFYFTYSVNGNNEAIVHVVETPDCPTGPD
Procedure: as §1

[3] = test system: α1β1, α2β1 and/or α10β1; test: Counter-screen for cross-reactivity to other collagen receptors; assay type: binding, human; settings: cross-reactivity to α1β1, α2β1, α10β1
Procedure: Wistar rats were immunized with recombinant human α11β1 protein. An enzyme-linked immunosorbent assay (ELISA) was used to test an immune response against target human and mouse proteins. Subsequently, cell fusion (by electro fusion) was performed with animals that produced a good immune response. All fused cells were plated in a 96-well plate and supernatants were screened by ELISA against soluble human and mouse α11β1. Positive clones were counter-screened against human α1β1, α2β1 and α10β1. […] Purified antibodies were then generated from the selected clones and heavy chain and light chain variable domain sequences were obtained from each purified antibody.
10 mice from 5 different strains were immunized with an appropriate mixture of human α11β1, mouse α11β1 and tolerance breaking protein. Plasma titers were evaluated by ELISA against a mixture of human and mouse α11β1. Popliteal, inguinal, and iliac lymph nodes were collected. ELISA-positive anti-human/mouse α11β1 hybridomas were expanded and subjected to a secondary screen against human and mouse α11β1, control HIS protein, and a counter-screen was performed against human […], α2β1 and α10β1. Supernatant IgG concentration was sufficient for functional screening. Selected hybridomas satisfying all the criteria were cloned and clonal hybridomas were confirmed by ELISA against human and mouse α11β1 and subsequently scaled-up and IgGs were purified. Heavy and light chain variable regions of selected hybridomas were then sequenced.
α11β1 belongs to a family of collagen receptors and has a relatively high homology to them. Therefore, the novel antibodies of this invention were counter-screened against α1β1, α2β1 and/or α10β1. Table 2 includes results of cross-reactivity to the other receptors.

[4] = molecular target: T1, I domain of α11β1 (Homo sapiens, UniProt Q9UKX5); test: ELISA binding to in-house generated I domain of α11β1; settings: for I Domain binding: Yes/No
T1 construct: An in-house generated I domain of α11β1 was used; made in house
T1 sequence (Q9UKX5 164-345 limits assumed): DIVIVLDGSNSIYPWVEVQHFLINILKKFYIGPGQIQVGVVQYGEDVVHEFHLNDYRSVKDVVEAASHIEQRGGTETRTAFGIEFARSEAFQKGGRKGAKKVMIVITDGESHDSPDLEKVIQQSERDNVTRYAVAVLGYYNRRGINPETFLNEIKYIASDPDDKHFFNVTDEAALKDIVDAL
Procedure: as §1
22 Data was also collected to determine whether antibodies of interest bind to the I domain of α11β1. An in-house generated I domain of α11β1 was used. […] Mouse antibodies 10-F23, 10-L15, 7-O8, 6-A12, 9-G05 and 9-E16 and rabbit antibodies 7-H12 and 2-D3 were also tested for binding against the in-house generated α11031 domain. FIGS. 3A and 3B show graphs illustrating binding data from exemplary mAbs.

[5] = test system: human pulmonary fibroblasts (HPFs); test: FACS antibody binding to human pulmonary fibroblasts; settings: binding Yes/No
Procedure: (§2) Human Pulmonary Fibroblasts (ScienCell) were cultured in complete Fibroblast Growth Medium (ScienCell) until 80% confluent in T-150 flasks. Cells were washed and harvested using Accutase. Cells were seeded into T-150 flasks at 7,500 cells/cm^2 in complete FGF and cultured for 72 hours. Cells were then washed and starved in serum reduced medium for 24 hours. After starvation, cells were treated with TGFβ-1 (R&D Systems) for 72 hours. Cells were harvested using Accutase and seeded in 96-well conical bottom plates. Cells were blocked with Heat Inactived Fetal Bovine Serum (Gibco) for 30 minutes at 4° C. Cells were then incubated with anti-α11 antibodies at the doses described in each figure for 30 minutes at 4° C. A human anti-α11 antibody (Creative BioLabs) was included as a positive control as well as the appropriate IgG isotype negative controls. Cells were washed twice and incubated with PE conjugated secondary antibodies specific to the IgG class of the anti-α11 antibodies being tested for 30 minutes at 4° C. Cells were washed twice and fixed in 1% PFA for 30 minutes. Cells were acquired on a FACS Verse […]. Data were analyzed by gating on single cells and determining the geometric Mean Fluorescence Intensity (gMFI) in the PE channel for each sample.
(§3) Binding to a physiologically relevant primary human cell type was also tested. Human pulmonary fibroblasts (HPF) and TGFβ treatment were used to induce a fibroblast-to-myofibroblast transition (FMT), giving rise to myofibroblasts (MF). […] Additionally, HPFs express α11 and α2β1, other collagen binding receptors, which means that HPFs can be to test cross-reactivity of antibodies of interest.

[6] = test system: myofibroblasts (MF); test: FACS antibody binding to myofibroblasts; design: species or system human; settings: binding Yes/No
Procedure: as §2, §3

[7] = test system: CHO-K1 cells expressing human α11; test: Cell adhesion inhibition (xCelligence), type I collagen; assay type: cell-based; settings: for Inhibition of CHO-K1 adhesion to collagen: Yes/No; for inhibition of cell adhesion to type I collagen: CHO-K1 hu α11 cells
How it was run: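 CHO-K1 cells expressing human α11 (0.6×10^6 cells/mL) were preincubated with mAbs across a concentration range for 20 min at 37° C, then seeded on wells coated with 100 ng/mL type I collagen and blocked with 3% BSA. Impedance-based adhesion was recorded over 6 h, and maximum adhesion was compared with untreated control.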

Sequence of human α11β1 (Q9UKX5 23-1141 limits assumed): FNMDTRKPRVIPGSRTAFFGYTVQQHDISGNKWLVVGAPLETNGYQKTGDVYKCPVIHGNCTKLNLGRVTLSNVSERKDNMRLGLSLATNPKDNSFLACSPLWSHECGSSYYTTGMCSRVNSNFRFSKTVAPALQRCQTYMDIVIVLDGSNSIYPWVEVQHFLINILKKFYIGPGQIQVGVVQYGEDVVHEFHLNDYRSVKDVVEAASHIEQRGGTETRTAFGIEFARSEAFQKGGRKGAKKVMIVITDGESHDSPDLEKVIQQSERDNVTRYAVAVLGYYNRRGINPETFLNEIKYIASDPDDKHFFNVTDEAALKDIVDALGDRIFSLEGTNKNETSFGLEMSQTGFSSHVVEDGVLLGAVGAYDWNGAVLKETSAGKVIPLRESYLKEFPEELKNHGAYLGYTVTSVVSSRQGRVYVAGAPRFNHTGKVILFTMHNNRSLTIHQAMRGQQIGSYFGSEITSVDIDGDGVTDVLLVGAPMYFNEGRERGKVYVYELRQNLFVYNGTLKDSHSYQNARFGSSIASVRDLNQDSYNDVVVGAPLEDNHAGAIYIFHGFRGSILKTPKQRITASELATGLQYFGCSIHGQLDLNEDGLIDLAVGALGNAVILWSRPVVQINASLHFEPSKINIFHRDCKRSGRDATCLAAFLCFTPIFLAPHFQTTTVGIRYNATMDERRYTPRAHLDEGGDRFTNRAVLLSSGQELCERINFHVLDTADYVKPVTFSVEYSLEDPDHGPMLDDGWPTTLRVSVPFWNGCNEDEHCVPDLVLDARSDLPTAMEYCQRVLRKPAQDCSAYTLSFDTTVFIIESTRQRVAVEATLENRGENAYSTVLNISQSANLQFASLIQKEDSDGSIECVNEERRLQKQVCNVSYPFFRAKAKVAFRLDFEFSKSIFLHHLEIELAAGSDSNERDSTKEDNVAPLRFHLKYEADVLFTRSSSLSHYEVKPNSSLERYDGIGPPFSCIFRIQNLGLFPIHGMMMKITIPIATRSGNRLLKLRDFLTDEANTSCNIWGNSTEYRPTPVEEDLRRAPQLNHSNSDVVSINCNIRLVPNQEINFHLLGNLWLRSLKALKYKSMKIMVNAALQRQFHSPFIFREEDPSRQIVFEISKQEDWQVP
Sequence of human α11β1 (P05556 21-728 partner limits assumed): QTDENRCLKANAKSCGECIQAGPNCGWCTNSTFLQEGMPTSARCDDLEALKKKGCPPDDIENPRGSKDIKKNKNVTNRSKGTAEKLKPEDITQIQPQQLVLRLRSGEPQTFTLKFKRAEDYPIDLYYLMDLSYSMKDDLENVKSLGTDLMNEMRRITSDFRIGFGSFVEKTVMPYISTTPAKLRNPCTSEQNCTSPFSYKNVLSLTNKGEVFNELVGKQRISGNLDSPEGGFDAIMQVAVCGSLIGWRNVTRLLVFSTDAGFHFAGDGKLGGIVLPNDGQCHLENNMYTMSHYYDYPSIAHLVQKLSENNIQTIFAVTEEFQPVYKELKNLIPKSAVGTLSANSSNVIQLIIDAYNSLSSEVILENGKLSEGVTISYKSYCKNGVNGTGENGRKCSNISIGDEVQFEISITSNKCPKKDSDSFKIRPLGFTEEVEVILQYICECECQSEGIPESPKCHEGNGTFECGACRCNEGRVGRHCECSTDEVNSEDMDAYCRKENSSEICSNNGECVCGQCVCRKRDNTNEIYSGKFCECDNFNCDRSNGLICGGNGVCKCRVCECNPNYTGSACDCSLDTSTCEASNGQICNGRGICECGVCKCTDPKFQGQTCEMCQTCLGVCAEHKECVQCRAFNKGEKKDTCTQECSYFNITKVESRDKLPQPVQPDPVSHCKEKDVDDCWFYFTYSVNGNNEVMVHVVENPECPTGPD

B3: 10-F23: mouse anti-α11β1 mAb; VH SEQ ID NO: 125, VL SEQ ID NO: 126 (antibody, V domains shown)
VH: QVTLKESGPGILQPSQTLSLTCSFSGFSLSTFAMGVGWIRQPSGKGLEWLAHIWWDDDKYYNPALKSRLTISKDTSKNHVFLKIANVDTADTATYYCARMPLTFYFDYWGQGTTLTVSS
VL: DVLLTQTPLSLPVSLGDQASISCRSSQSIVHSNGHTYLEWYLQKPGQSPKLLIYKVSNRFSGVPDRFSGSGSGTDFTLKISRVEAEDLGVYYCFQGSHVPFTFGGGTKLEIK
- Human α11β1 ELISA [1]: Yes
- Murine α11β1 ELISA [2]: Yes/Low
- Off Target [3]: No
- I Domain binding [4]: Yes
- HPF FACS [5]: No
- MF FACS [6]: Yes
- Inhibition of CHO-K1 adhesion to collagen [7]: Yes

B4: 16G7: rabbit anti-α11β1 mAb; heavy chain SEQ ID NO: 159, light chain SEQ ID NO: 160 (antibody)
heavy: METGLRWLLLVAVFKGVQCQEQLVESGGDLVKPGASLTLTCTASGFSFNKNYWMCWVRQAPGKGLEWIGCIYNGDGNTYYASWVNGRFTISKTSSTTVTLQMTSLTVADTAIYFCARLLNMWGPGTLVTVSSGQPKAPSVFPLAPCCGDTPSSTVTLGCLVKGYLPEPVTVTWNSGTLTNGVRTFPSVRQSSGLYSLSSVVSVTSSSQPVTCNVAHPATNTKVDKTVAPSTCSKPMCPPPELPGGPSVFIFPPKPKDTLMISRTPEVTCVVVDVSQDDPEVQFTWYINNEQVRTARPPLREQQFNSTIRVVSTLPIAHQDWLRGKEFKCKVHNKALPAPIEKTISKARGQPLEPKVYTMGPPREELSSRSVSLTCMINGFYPSDISVEWEKNGKAEDNYKTTPTVLDSDGSYFLYSKLSVPTSEWQRGDVFTCSVMHEALHNHYTQKSISRSPGK
light: MDTRAPTQLLGLLLLWLPGARCADIVMTQTPASVEAAVGGTVTIKCQASESIGNALAWYQQKPGQPPKLLIYTAATLASGVPSRFSGSGSGTEFTLTISGVQCDDAATYYCQSYYFTSVSSYGNAFGGGTEVVVKGDPVAPTVLIFPPAADQVATGTVTIVCVANKYFPDVTVTWEVDGTTQTTGIENSKTPQNSADCTYNLSSTLTLTSTQYNSHKEYTCKVTQGTTSVVQSFNRGDC
- Human α11β1 ELISA [1]: Yes
- Murine α11β1 ELISA [2]: Yes
- Off Target [3]: No
- I Domain binding [4]: No
- HPF FACS [5]: No
- MF FACS [6]: Yes
- inhibition of cell adhesion to type I collagen [7]: didn't have an effect on cell adhesion
- Inhibition of CHO-K1 adhesion to collagen [7]: No

B6: 24E4G6: rat anti-α11β1 mAb; VH SEQ ID NO: 147, VL SEQ ID NO: 148 (antibody, V domains shown)
VH: MELELSLIFIFSLLKDVQCEVQLVESGGSLVQPGGSLKLSCVASGYTFSNYWMDWVRQSPGKSLEWIGEINTDGRRTNYAPSIKDRFTISRDNAKSTLYLQMSNVKSDDTAIYYCTILRVYPHYFDYWGQGVMVTVSS
VL: MMSPAQFLFLLMLWIQEARGDVVMTQTPPSLSVAIGQSVSISCKSSQSLVYSDGETYLHWFLQSPGRSPKRLIYHVSNLGSGVPDRFSGTGSLTDFTLRISRVEAEDLGVYYCAQTTHFPPTFGAGTKLELK
- Human α11β1 ELISA [1]: Yes
- Murine α11β1 ELISA [2]: No/Low
- Off Target [3]: No
- I-domain binder [4]: did not bind to the I-domain; also recorded: neither of the antibodies was found to be an I-domain binder
- I Domain binding [4]: No
- HPF FACS [5]: No
- MF FACS [6]: Yes
- inhibition of cell adhesion to type I collagen [7]: nor did it inhibit cell adhesion
- Inhibition of CHO-K1 adhesion to collagen [7]: No

Now from value to molecule, other results behind:

- Human α11β1 ELISA [1]: Yes
- Murine α11β1 ELISA [2]: Yes/Low
- Off Target [3]: No
- I Domain binding [4]: No
- HPF FACS [5]: No
- MF FACS [6]: No
B1: 3-G5: mouse anti-α11β1 mAb; VH SEQ ID NO: 135, VL SEQ ID NO: 136 (antibody, V domains shown)
VH: QVQLQQSGAELARPGASVKLSCKASGYTFTSYGISWVKQRTGQGLEWIGEIFPRSSNTYYNEKFKGKATLTADKSSSTVYMEFRSLTSEDSAVYFCAREGGLAWFAYWGQGTLVTVSA
VL: DVVMTQTPLTLSVTIGQPASISCKSSQSLLYTNGNTYLNWLLQRPGQSPKRLIYLVSKLDSGIPDRFSGSGSGTDFTLRISRVEAEDLGVYYCLQSTHFPFTFGSGTKLEIK
- Inhibition of CHO-K1 adhesion to collagen [7]: No

- Human α11β1 ELISA [1]: Yes
- Murine α11β1 ELISA [2]: Yes/Low
- Off Target [3]: No
- I Domain binding [4]: No
- HPF FACS [5]: No
- MF FACS [6]: No
B2: 6-B21: mouse anti-α11β1 mAb; VH SEQ ID NO: 123, VL SEQ ID NO: 124 (antibody, V domains shown)
VH: EVQLQQSGPELVKPGASVKISCKASGYTFTDYYMNWVKQSHGKSLEWIGDINPHNGGTSFIQKFKGKATLTVDKSSSTAYMELRSLTSEDSAVYYCAPLGRKEGFAYWGQGTLVTVSA
VL: DTVLTQSPASLVVSLGQRATISCRASKSVSTSGYSYMHWYQQKPGQPPKLLIYLASNLESGVPARFSGSGSGTAFTLNIHPVEEEDAATYYCQHSRELPYTFGGGTKLEIK
- Inhibition of CHO-K1 adhesion to collagen [7]: No

- Human α11β1 ELISA [1]: Yes
- Murine α11β1 ELISA [2]: No
- Off Target [3]: No
- I Domain binding [4]: No
- HPF FACS [5]: No
- MF FACS [6]: No
B5: 6-O12: mouse anti-α11β1 mAb; VH SEQ ID NO: 117, VL SEQ ID NO: 118 (antibody, V domains shown)
VH: EVKLEESGGGLVQPGGSMKLSCAASGFTFSDAWMDWVRQSPEAGLEWVAEIRNKAHNPATYYAESVKGRFTISRDDSKSSVYLQMNSLRAEDTGIYYCTLVAPDAMDYWGQGTSVTVSS
VL: DIVMSLSPSSLAVSVGEKVTMSCKSSQSLLYSRNQKNYLAWYQQKPGQSPKLLIYWASTRASGVPDRFTGSGSGTDFTLTISSVKAEDLAVYYCQQYYSYPYTFGGGTKLEIK
- Inhibition of CHO-K1 adhesion to collagen [7]: No
